From patent US20050272633

Target: T1, IL-2 receptor common gamma chain (cγc), full length (1-369), P31785
T1 chain: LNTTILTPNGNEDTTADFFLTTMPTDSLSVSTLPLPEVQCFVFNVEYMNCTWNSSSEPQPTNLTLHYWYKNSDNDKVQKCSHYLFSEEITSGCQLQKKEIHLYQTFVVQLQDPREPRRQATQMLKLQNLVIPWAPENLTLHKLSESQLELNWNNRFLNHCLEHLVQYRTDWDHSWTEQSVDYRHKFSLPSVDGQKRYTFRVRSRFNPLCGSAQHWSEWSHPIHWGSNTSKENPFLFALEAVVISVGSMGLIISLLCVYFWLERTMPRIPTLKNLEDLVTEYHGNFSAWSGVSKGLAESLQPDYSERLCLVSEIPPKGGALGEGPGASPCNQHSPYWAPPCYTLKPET

B1: myc tagged NIK (pcS3MTNIK) (protein)
chain: MAVMEMACPGAPGSAVGQQKELPKAKEKTPPLGKKQSSVYKLEAVEKSPVFCGKWEILNDVITKGTAKEGSEAGPAAISIIAQAECENSQEFSPTFSERIFIAGSKQYSQSESLDQIPNNVAHATEGKMARVCWKGKRRSKARKKRKKKSSKSLAHAGVALAKPLPRTPEQESCTIPVQEDESPLGAPYVRNTPQFTKPLKEPGLGQLCFKQLGEGLRPALPRSELHKLISPLQCLNHVWKLHHPQDGGPLPLPTHPFPYSRLPHPFPFHPLQPWKPHPLESFLGKLACVDSQKPLPDPHLSKLACVDSPKPLPGPHLEPSCLSRGAHEKFSVEEYLVHALQGSVSSGQAHSLTSLAKTWAARGSRSREPSPKTEDNEGVLLTEKLKPVDYEYREEVHWATHQLRLGRGSFGEVHRMEDKQTGFQCAVKKVRLEVFRAEELMACAGLTSPRIVPLYGAVREGPWVNIFMELLEGGSLGQLVKEQGCLPEDRALYYLGQALEGLEYLHSRRILHGDVKADNVLLSSDGSHAALCDFGHAVCLQPDGLGKSLLTGDYIPGTETHMAPEVVLGRSCDAKVDVWSSCCMMLHMLNGCHPWTQFFRGPLCLKIASEPPPVREIPPSCAPLTAQAIQEGLRKEPIHRVSAAELGGKVNRALQQVGGLKSPWRGEYKEPRHPPPNQANYHQTLHAQPRELSPRAPGPRPAEETTGRAPKLQPPLPPEPPEPNKSPPLTLSKEESGMWEPLPLSSLEPAPARNPSSPERKATVPEQELQQLEIELFLNSLSQPFSLEEQEQILSCLSIDSLSLSDDSEKNPSKASQSSRDTLSSGVHSWSSQAEARSSSWNMVLARGRPTDTPSYFNGVKVQIQSLNGEHLHIREFHRVKVGDIATGISSQIPAAAFSLVTKDGQPVRYDMEVPDSGIDLQCTLAPDGSFAWSWRVKHGQLENRP
in vitro kinase assay of anti NIK immunoprecipitates: NIK self- and IKK1-phosphorylation: A three fold increase in phosphorylation of NIK self- and IKK1-phosphorylation was observed in the presence of cγc
